Assay results from patent US20110165161A1, “ANTI-EPCAM ANTIBODIES THAT INDUCE APOPTOSIS OF CANCER CELLS AND METHODS USING SAME” (priority 2009, published 2011).

What was measured:
[1] = tested on: Gastric cancer NCI-N87 cells; assay: Antibody cytotoxicity assay (Annexin V + PI), NCI-N87; assay type: cell-based; details: 1, 3 and 10 μg/ml, overnight
Procedure: (§1) After a 17-20 hr incubation at 37° C., cells were stained with 0.3 μl of FITC-conjugated Annexin V (Strong Biotech Corp. Cat. No. AVK250) in 50 μl Annexin V binding buffer (Strong Biotech Corp. Cat. No. AVK250) at RT for 20 min. After wash, the cells were then stained with 0.3 μl of propidium iodide in 200 μl Annexin V binding buffer. Annexin V and Propidium Iodide were used as a joint indicator for cell death. The data were acquired with BD FACSCalibur based on an acquisition of 3,000-5,000 cells and analyzed with the Cell Quest software. The combined percentages of the Annexin V+/PI+, Annexin V+/PI− and Annexin V−/PI+populations were considered as dead cells.

[2] = tested on: Prostate cancer LNCaP cells; assay: Antibody cytotoxicity assay (Annexin V + PI), LNCaP; assay type: cell-based; details: 1, 3 and 10 μg/ml, overnight
Procedure: as §1

[3] = tested on: Colorectal cancer DLD-1 cells; assay: Antibody cytotoxicity assay (Annexin V + PI), DLD-1; assay type: cell-based; details: 1, 3 and 10 μg/ml, overnight
Procedure: as §1

[4] = tested on: Breast cancer T-47D cells; assay: Antibody cytotoxicity assay (Annexin V + PI), T-47D; assay type: cell-based; details: 1, 3 and 10 μg/ml, overnight
Procedure: as §1

[5] = tested on: Lung cancer NCI-H520 cells; assay: Antibody cytotoxicity assay (Annexin V + PI), NCI-H520; assay type: cell-based; details: 1, 3 and 10 μg/ml, overnight
Procedure: as §1

[6] = tested on: Pharynx cancer FaDu cells; assay: Antibody cytotoxicity assay (Annexin V + PI), FaDu; assay type: cell-based; details: 1, 3 and 10 μg/ml, overnight
Procedure: as §1

[7] = tested on: NCI-H358 lung cancer cells; assay: Cell death in NCI-H358 lung cancer cells (Annexin V + PI); assay type: cell-based, human; details: mean of 5 experiments; mAb 10 μg/ml; 17 hr
Procedure: 5×10^4 NCI-H358 cells were seeded to each well of a 96-well plate, and then 10 μg/ml of anti-EpCAM or control (9E10) mAbs diluted in the medium was added into the cells. After a 17-hr incubation at 37° C., the cells were stained with 0.3 μl of FITC-conjugated Annexin V (Strong Biotech Corp. Cat. No. AVK250) in 50 μl Annexin V binding buffer (Strong Biotech Corp. Cat. No. AVK250) at RT for 20 min. After wash, the cells were then stained with 0.3 μl of propidium iodide in 200 μl Annexin V binding buffer. Annexin V and Propidium Iodide were used as a joint indicator for measuring cell death. The data were acquired with BD FACSCalibur based on an acquisition of 3,000-5,000 cells and analyzed with the Cell Quest software. The combined percentages of the Annexin V+/PI+, Annexin V+/PI− and Annexin V−/PI+populations were considered as dead cells.

[8] = tested on: Ovarian cancer NIH:OVCAR-3 cells; assay: Antibody cytotoxicity assay (Annexin V + PI), NIH:OVCAR-3; assay type: cell-based; details: 1, 3 and 10 μg/ml, overnight
Procedure: as §1

[9] = tested on: CHO parental cells; assay: FACS binding of anti-EpCAM antibodies to CHO parental cells; design: species or system Chinese hamster; details: antibody 0.1 μg/ml; HPS at 300x dilution
Procedure: 1×10^5 CHO/EpCAM or CHO parental cells were seeded in each well of a v-bottomed 96-well plate and incubated with purified anti-EpCAM antibodies or mouse IgG control antibody 9E10 at concentration of 0.1 μg/ml. A 300× dilution of human cell hyper-immune serum (HPS 300×) was used as binding positive control for both cell lines here. After 1 hr incubation at 4° C., cells were washed twice with 200 μl FACS buffer (1×PBS containing 1% FBS), stained with 100 μl of 1 μg/ml goat-anti-mouse IgG-PE (Southern Biotech, Cat. No. 1032-09) in FACS buffer and then incubated at 4° C. for 30 min. Cells were washed thrice with FACS buffer and analyzed by flow cytometry (BD LSR, BD Life Sciences).

Molecule	Induction of cell death (in words) [1]	Induction of cell death (in words) [2]	Induction of cell death (in words) [3]	Induction of cell death (in words) [4]	Induction of cell death (in words) [5]	Induction of cell death (in words) [6]	% of Annexin V + PI staining (untreated background subtracted), Mean ± SEM [7] [%]	Induction of cell death (in words) [8]	Binding (FACS, Mean fluorescence intensity (MFI)) CHO [9]
2D11: murine anti-human EpCAM monoclonal antibody (IgG1, K), hybridoma m322-2D11.19; VH SEQ ID NO:15, VL SEQ ID NO:17 (antibody, listed as Mus musculus, V domains shown) VH: QIQLVQSGPELKKPGETVKISCKASGYTFTNYGMNWVKQAPGKGLKWMGWINTNTGEATYVEEFKGRVVFSLETSASTAYLQINNLKNEDTATYFCARIGYVWYFDVWGAGTTVTVSS VL: DIVMSQSPSSLAVSAGEKVTMSCKSSQSLFSSRTRKNYLAWYQQKPGQSPKLLIYWASTRESGVPDRFTGSGSGTDFTLTINSVQAEDLAVYYCKHSNNLFTFGSGTKLEIKR	substantial cell death	substantial cell death	substantial cell death	substantial cell death	substantial cell death	substantial cell death	39.4 ± 3.0	substantial cell death	6
6D11: murine anti-human EpCAM monoclonal antibody (IgG1, K), hybridoma m338-6D11.8; VH SEQ ID NO:23, VL SEQ ID NO:25 (antibody, listed as Mus musculus, V domains shown) VH: EVQLVESGGDLVKPGGSLKLSCAASGFAFDSYGMSWIRQTPGTRLEWVATISSGGYYTYYEDNVKGRFIISRDNAKNTLDLQMSGLKSEDAATYYCARRGNYDVDYYAMDYWGQGTSVIVSS VL: DVVLTQIPLSLPVSLGDQASISCRSSQSLEHSNGNTYLHWYLQKPGQSPKLLIYKVSNRFSGVPDRFSGSGSGTDFTLKISRVEAEDLGVYFCSQSTHVPPWTFGGGTKLEFKR	substantial cell death	substantial cell death	substantial cell death	substantial cell death	substantial cell death	substantial cell death	42.4 ± 1.0	substantial cell death	5
4D2: murine anti-human EpCAM monoclonal antibody (IgG1, K), hybridoma m338-4D2.20; VH SEQ ID NO:19, VL SEQ ID NO:21 (antibody, listed as Mus musculus, V domains shown) VH: EVQLVESGGDLVKPGGSLKLSCAASGFAFDSYGMSWVRQTPGKRLEWVATISSGGYYTYYQDSVKGRFTTSRDNAKNTLDLQMSSLKSEDSAIYYCARRGNYDVDYYAMDYWGQGTSVTVSS VL: DVVMTQTPLSLPVSLGDQASISCRSSQSLVHSNGNTYLHWYLQKPGQSPKLLIYKVSNRFSGVPDRFSGSGSGTDFTLRISRVEAEDLGVYFCSQSTHVPPWTFGGGTKLEIKR	substantial cell death	substantial cell death	substantial cell death	substantial cell death	substantial cell death	substantial cell death	43.6 ± 0.9	substantial cell death	5
